What all share (experiment): cell-based or functional assay
Experiment [1] has as its target OVA peptide 323-339 (OVAp).
Experiment [2] has as its target scrambled OVA peptide, scOVAp.
Experiment [3] deals with GBSIII-OVAp (GBSIII conjugated to N-acetylated, C-terminally extended OVA323-339).

Regarding “T-cell receptor of DO11.10 transgenic mice that recognizes OVA peptide 323-339 in the context of MHC class II (I-A^d) (TCR)”, in experiment [1], the T cell proliferation, [3H]thymidine incorporation, 2.5 µg OVAp is 285000 cpm; the T cell proliferation, stimulation index (SI), 0.013 µg OVAp was 35 SI; the T cell proliferation, stimulation index (SI), 0.13 µg OVAp is 781 SI; the T cell proliferation, stimulation index (SI), 1.3 µg OVAp was determined as 2940 SI. The same substance displayed a T cell proliferation, [3H]thymidine incorporation in experiment [2] of less than 500 cpm. In experiment [3], the T cell proliferation, [3H]thymidine incorporation, 10 µg GBSIII-OVAp came out at 12700 cpm and the fold lower T cell proliferation against the same amount of OVAp is 23 fold.

These data come from US9358302.
